Source: patent US20240270860A1

How the values were obtained:
2LS2…2RPGWY2AL = molecular target: T1, 2LS2…2RPGWY2AL; assay: peptide-array ELISA (CYS.S) [Continued]
T1 sequence (peptide, 2 = Cys(ACM)): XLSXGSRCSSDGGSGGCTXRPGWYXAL

2…2RPGWY = molecular target: T2, 2…2RPGWY; assay: peptide-array ELISA (CYS.S) [Continued]
T2 sequence (peptide, 2 = Cys(ACM)): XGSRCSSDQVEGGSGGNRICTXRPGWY

…2RPGWY2A = molecular target: T3, …2RPGWY2A; assay: peptide-array ELISA (CYS.S) [Continued]
T3 sequence (peptide, 2 = Cys(ACM)): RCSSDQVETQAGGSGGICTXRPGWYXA

[1] = molecular target: T4, …2…; assay: peptide-array ELISA (CYS.S) [Continued]
T4 sequence (peptide, 2 = Cys(ACM)): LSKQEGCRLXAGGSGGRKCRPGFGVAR

…2RP [2] = molecular target: T5, …2RP; assay: peptide-array ELISA (CYS.S)
T5 sequence (peptide, 2 = Cys(ACM)): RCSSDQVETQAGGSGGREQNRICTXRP

E2LS2…2RPG = molecular target: T6, E2LS2…2RPG; assay: peptide-array ELISA (CYS.S)
T6 sequence (peptide, 2 = Cys(ACM)): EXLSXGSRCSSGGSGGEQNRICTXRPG

…2…2R = molecular target: T7, …2…2R; assay: peptide-array ELISA (CYS.S)
T7 sequence (peptide, 2 = Cys(ACM)): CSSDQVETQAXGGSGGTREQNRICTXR

…2RPG [3] = molecular target: T8, …2RPG; assay: peptide-array ELISA (CYS.S)
T8 sequence (peptide, 2 = Cys(ACM)): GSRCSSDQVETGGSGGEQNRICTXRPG

LS2…2RPG = molecular target: T9, LS2…2RPG; assay: peptide-array ELISA (CYS.S)
T9 sequence (peptide, 2 = Cys(ACM)): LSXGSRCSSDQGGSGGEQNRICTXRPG

…2RPGW [4] = molecular target: T10, …2RPGW; assay: peptide-array ELISA (CYS.S)
T10 sequence (peptide, 2 = Cys(ACM)): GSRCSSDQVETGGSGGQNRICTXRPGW

PE2LS2…2RP = molecular target: T11, PE2LS2…2RP; assay: peptide-array ELISA (CYS.S)
T11 sequence (peptide, 2 = Cys(ACM)): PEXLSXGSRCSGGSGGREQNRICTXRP

LS2…2RP = molecular target: T12, LS2…2RP; assay: peptide-array ELISA (CYS.S)
T12 sequence (peptide, 2 = Cys(ACM)): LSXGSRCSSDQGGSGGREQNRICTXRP

E2LS2…2RPGW = molecular target: T13, E2LS2…2RPGW; assay: peptide-array ELISA (CYS.S)
T13 sequence (peptide, 2 = Cys(ACM)): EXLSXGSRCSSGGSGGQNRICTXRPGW

…2RPG [5] = molecular target: T14, …2RPG; assay: peptide-array ELISA (CYS.S); remark: listed apart in the source
T14 sequence (peptide, 2 = Cys(ACM)): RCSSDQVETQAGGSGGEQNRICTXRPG

2LS2…2RP = molecular target: T15, 2LS2…2RP; assay: peptide-array ELISA (CYS.S)
T15 sequence (peptide, 2 = Cys(ACM)): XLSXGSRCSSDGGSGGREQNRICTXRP

PE2LS2…2RPG = molecular target: T16, PE2LS2…2RPG; assay: peptide-array ELISA (CYS.S)
T16 sequence (peptide, 2 = Cys(ACM)): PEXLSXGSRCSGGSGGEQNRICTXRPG

VPE2LS2…2RP = molecular target: T17, VPE2LS2…2RP; assay: peptide-array ELISA (CYS.S)
T17 sequence (peptide, 2 = Cys(ACM)): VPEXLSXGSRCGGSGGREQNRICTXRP

…2R [6] = molecular target: T18, …2R; assay: peptide-array ELISA (CYS.S)
T18 sequence (peptide, 2 = Cys(ACM)): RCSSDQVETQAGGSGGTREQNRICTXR

…2…2RP = molecular target: T19, …2…2RP; assay: peptide-array ELISA (CYS.S)
T19 sequence (peptide, 2 = Cys(ACM)): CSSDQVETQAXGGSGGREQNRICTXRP

2LS2…2RPGW = molecular target: T20, 2LS2…2RPGW; assay: peptide-array ELISA (CYS.S)
T20 sequence (peptide, 2 = Cys(ACM)): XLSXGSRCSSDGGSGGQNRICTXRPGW

2LS2…2RPG = molecular target: T21, 2LS2…2RPG; assay: peptide-array ELISA (CYS.S)
T21 sequence (peptide, 2 = Cys(ACM)): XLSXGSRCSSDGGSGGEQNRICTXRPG

E2LS2…2RP = molecular target: T22, E2LS2…2RP; assay: peptide-array ELISA (CYS.S)
T22 sequence (peptide, 2 = Cys(ACM)): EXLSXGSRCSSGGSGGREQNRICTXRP

…2RP [7] = molecular target: T23, …2RP; assay: peptide-array ELISA (CYS.S); remark: listed apart in the source
T23 sequence (peptide, 2 = Cys(ACM)): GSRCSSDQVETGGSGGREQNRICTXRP

…2RPGW [8] = molecular target: T24, …2RPGW; assay: peptide-array ELISA (CYS.S); remark: listed apart in the source
T24 sequence (peptide, 2 = Cys(ACM)): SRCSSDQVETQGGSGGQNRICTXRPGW

S2…2RPG = molecular target: T25, S2…2RPG; assay: peptide-array ELISA (CYS.S)
T25 sequence (peptide, 2 = Cys(ACM)): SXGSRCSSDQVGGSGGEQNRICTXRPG

…2R [9] = molecular target: T26, …2R; assay: peptide-array ELISA (CYS.S); remark: listed apart in the source
T26 sequence (peptide, 2 = Cys(ACM)): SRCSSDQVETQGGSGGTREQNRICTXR

…2RP [10] = molecular target: T27, …2RP; assay: peptide-array ELISA (CYS.S); remark: listed apart in the source
T27 sequence (peptide, 2 = Cys(ACM)): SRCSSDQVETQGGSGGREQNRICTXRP

S2…2RPGW = molecular target: T28, S2…2RPGW; assay: peptide-array ELISA (CYS.S)
T28 sequence (peptide, 2 = Cys(ACM)): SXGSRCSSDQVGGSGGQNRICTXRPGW

2…2RPG = molecular target: T29, 2…2RPG; assay: peptide-array ELISA (CYS.S)
T29 sequence (peptide, 2 = Cys(ACM)): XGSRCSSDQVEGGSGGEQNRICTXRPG

VPE2LS2…2RPGW = molecular target: T30, VPE2LS2…2RPGW; assay: peptide-array ELISA (CYS.S)
T30 sequence (peptide, 2 = Cys(ACM)): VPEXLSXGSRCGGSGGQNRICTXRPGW

VPE2LS2…2RPG = molecular target: T31, VPE2LS2…2RPG; assay: peptide-array ELISA (CYS.S)
T31 sequence (peptide, 2 = Cys(ACM)): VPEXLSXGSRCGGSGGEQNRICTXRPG

2…2RPGW = molecular target: T32, 2…2RPGW; assay: peptide-array ELISA (CYS.S)
T32 sequence (peptide, 2 = Cys(ACM)): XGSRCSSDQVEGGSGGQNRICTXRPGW

…2RPGW [11] = molecular target: T33, …2RPGW; assay: peptide-array ELISA (CYS.S); remark: listed apart in the source
T33 sequence (peptide, 2 = Cys(ACM)): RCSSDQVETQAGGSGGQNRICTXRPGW

2…2RP = molecular target: T34, 2…2RP; assay: peptide-array ELISA (CYS.S)
T34 sequence (peptide, 2 = Cys(ACM)): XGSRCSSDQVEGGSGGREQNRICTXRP

LS2…2RPGW = molecular target: T35, LS2…2RPGW; assay: peptide-array ELISA (CYS.S)
T35 sequence (peptide, 2 = Cys(ACM)): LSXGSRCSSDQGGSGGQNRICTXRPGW

PE2LS2…2RPGW = molecular target: T36, PE2LS2…2RPGW; assay: peptide-array ELISA (CYS.S)
T36 sequence (peptide, 2 = Cys(ACM)): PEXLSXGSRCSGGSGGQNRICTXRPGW

S2…2RP = molecular target: T37, S2…2RP; assay: peptide-array ELISA (CYS.S)
T37 sequence (peptide, 2 = Cys(ACM)): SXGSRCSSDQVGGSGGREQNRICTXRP

…2…2RPG = molecular target: T38, …2…2RPG; assay: peptide-array ELISA (CYS.S)
T38 sequence (peptide, 2 = Cys(ACM)): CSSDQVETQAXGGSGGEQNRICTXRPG

…2RPG [12] = molecular target: T39, …2RPG; assay: peptide-array ELISA (CYS.S); remark: listed apart in the source
T39 sequence (peptide, 2 = Cys(ACM)): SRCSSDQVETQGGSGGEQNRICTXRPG

…2…2RPGW = molecular target: T40, …2…2RPGW; assay: peptide-array ELISA (CYS.S)
T40 sequence (peptide, 2 = Cys(ACM)): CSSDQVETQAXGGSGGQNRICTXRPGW

B1: antagonistic TNFR2 antibody TNFRAB1 (antibody, V domains shown)
VH: EVQLQESGGGLVKPGGSLKLSCAASGFTFSSYVMSWVRQTPEKRLEWVATISSGGSYTYYPDSVKGRFTISRDNAKNTLYLQMSSLRSEDTAMYYCARQRVDGYSSYWYFDVWGAGTAVTVSS
VL: DIVLTQSPAIMSASPGEKVTITCSASSSVYYMYWFQQKPGTSPKLWIYSTSNLASGVPVRFSGSGSGTSYSLTISRMEAEDAATYYCQQRRNYPYTFGGGTKLEIKR
- Raw luminescence data (2LS2…2RPGWY2AL): 603
- Raw luminescence data (2…2RPGWY): 588
- Raw luminescence data (…2RPGWY2A): 372
- Raw luminescence data [1]: 474
- Raw luminescence data (…2RP [2]): 130
- Raw luminescence data (E2LS2…2RPG): 152
- Raw luminescence data (…2…2R): 179
- Raw luminescence data (…2RPG [3]): 202
- Raw luminescence data (LS2…2RPG): 244
- Raw luminescence data (…2RPGW [4]): 466
- Raw luminescence data (PE2LS2…2RP): 291
- Raw luminescence data (LS2…2RP): 261
- Raw luminescence data (E2LS2…2RPGW): 482
- Raw luminescence data (…2RPG [5]): 183
- Raw luminescence data (2LS2…2RP): 262
- Raw luminescence data (PE2LS2…2RPG): 229
- Raw luminescence data (VPE2LS2…2RP): 318
- Raw luminescence data (…2R [6]): 125
- Raw luminescence data (…2…2RP): 250
- Raw luminescence data (2LS2…2RPGW): 345
- Raw luminescence data (2LS2…2RPG): 214
- Raw luminescence data (E2LS2…2RP): 323
- Raw luminescence data (…2RP [7]): 166
- Raw luminescence data (…2RPGW [8]): 402
- Raw luminescence data (S2…2RPG): 235
- Raw luminescence data (…2R [9]): 177
- Raw luminescence data (…2RP [10]): 157
- Raw luminescence data (S2…2RPGW): 364
- Raw luminescence data (2…2RPG): 221
- Raw luminescence data (VPE2LS2…2RPGW): 577
- Raw luminescence data (VPE2LS2…2RPG): 225
- Raw luminescence data (2…2RPGW): 493
- Raw luminescence data (…2RPGW [11]): 507
- Raw luminescence data (2…2RP): 228
- Raw luminescence data (LS2…2RPGW): 291
- Raw luminescence data (PE2LS2…2RPGW): 543
- Raw luminescence data (S2…2RP): 247
- Raw luminescence data (…2…2RPG): 248
- Raw luminescence data (…2RPG [12]): 222
- Raw luminescence data (…2…2RPGW): 493
